From PMC3794917

System: Rad51
Experiment: EM
Conditions: RPA pre-bound to ssDNA, no Rad52, 60 mM NaCl; all filaments complete; Rad52 EMSA: 10 mM Tris-HCl pH 8, 5 mM MgCl2, 100 mM NaCl, 37 C, 10 min, 0.27 uM XV2, 8% native PAGE; filament assays: SEB buffer, 60 mM NaCl (or titrated) …

400-nt ssDNA fragment
binding signal (% of Rad51 filaments formed): 12.5
